Results taken from US20220387441A1, “TARGETING THE NEUROLIGIN-3 BINDING PARTNER CSPG4 IN GLIOMA” (The Board of Trustees of the Leland Stanford Junior …, priority 2021, published 2022).

Key:
[1] = system: CSPG4 shedding from glioma cells (DIPG neurospheres 13pons, 21); test: CSPG4 Release Assay (western blot of conditioned medium); type: cell-based, human
Description: (§1) Here, we provide evidence that both NLGN3 and CSPG4 ectodomains are in fact cleaved in response to neuronal activity, but that these events are separated in space and time. NLGN3 undergoes ADAM-mediated cleavage in response to glutamate-mediated depolarization, freeing the NLGN3 ectodomain to bind the LNS domains of CSPG4 and induce its subsequent cleavage from the membrane (FIG. 2A). High-grade glioma cells constitutively shed proteins such as CSPG4 and NLGN3 into their culture medium. […] These proteins represent cleaved ectodomains, given their failure to react with a C-terminal CSPG4 antibody (FIG. 2B). We also note that these proteins appear as smears by western blot in large part due to the effects of chondroitin sulfate as treatment of conditioned medium with Chondroitinase ABC collapses these smears into sharp bands (FIG. 2B).
CSPG4 Release Assay: DIPG neurospheres (13pons, 21) were cultured in defined medium (1:1 Neurobasal and DMEM F12, 1× Glutamax, 1× pen/strep, 1×MEM NEAA, 1× sodium pyruvate, 1×HEPES, 1×B-27 (w/o vit A) supplement, heparin, EGF, FGF, PDGF-AA, PDGF-BB) at 37C, 5% CO2. Cells were pelleted at 250G×5 min, medium aspirated, and washed in HBSS w/o calcium and magnesium. […] Dissociated and washed cells were resuspended in HBSS plus Ca+/Mg+ and counted. […]

[2] = biological target: T1, CTLA4 (Homo sapiens, UniProt P16410); conditions: cited from earlier work
T1 construct: CTLA4 is expressed exclusively on T cells; host or cells: patients' T cells (endogenous)
T1 sequence (P16410 36-223): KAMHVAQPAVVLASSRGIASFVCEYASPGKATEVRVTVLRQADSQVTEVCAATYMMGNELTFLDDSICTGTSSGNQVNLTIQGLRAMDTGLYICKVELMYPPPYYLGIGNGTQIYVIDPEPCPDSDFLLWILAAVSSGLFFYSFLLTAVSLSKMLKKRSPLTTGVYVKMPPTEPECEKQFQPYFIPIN

[3] = system: DIPG6 xenografts; test: DIPG6 xenograft survival; type: in vivo; conditions: 40 mg/kg IP, 5 days with 2 days of rest, P130 through P158, DIPG6 cells in cortices of NSG mice
Experimental: Dosing of 40 mg/kg was administered via IP injection for 5 days with 2 days of rest in between cycles. Mice were then followed until death.

[4] = system: DIPG13p xenografts; test: DIPG13p xenograft survival; type: in vivo; conditions: 30 mg/kg oral gavage daily (5 days on/2 days off) until death, DIPG 13p cells in pons of NSG mice
Description: Blockade of CSPG4 RIP via gamma secretase inhibition attenuates glioma growth. Given that CSPG4 is the largest and most structurally complex member of the surfaceome with several validated binding partners and numerous reported functions, we sought to disrupt signaling events downstream of CSPG4 RIP. To that end, we xenografted human glioma cells into pons of immune-deficient mice and treated them with gamma secretase inhibitor to prevent CSPG4 RIP. The treatment of murine OPCs with a gamma secretase inhibitor accelerated their differentiation in vitro as assessed by MBP staining and in line with reports from others.
Treatment was continued daily (5 days on/2 days off) until death with mice receiving 30 mg/kg of gamma secretase inhibitor or matched vehicle by oral gavage.

[5] = system: mouse-derived optic pathway glioma cells; test: AN2 shedding from mouse-derived optic pathway glioma cells; type: cell-based; conditions: mouse-derived optic pathway glioma cells incubated with human sNLGN3
Description: as §1

[6] = system: primary mouse OPCs; test: AN2 shedding from primary mouse OPCs; type: cell-based; conditions: primary mouse OPCs incubated with human sNLGN3
Description: as §1

## CNC(=O)[C@@H](NC(=O)[C@H](CCCc1ccccc1)[C@H](C)N(O)C=O)C(C)(C)C [G1254023X]
[1]; pre-treatment of glioma cells with ADAM10i, 4 uM, 15 minutes
  shedding of CSPG4 into culture medium (baseline ADAM-mediated cleavage): prevents shedding

## Tremelimumab: fully humanized CTLA4 antibody
[2]; 10 mg/kg monthly regimen versus 15 mg/kg every 3 months, randomized clinical trial
  toxicity: doubled
[2]; at one month
  sustained plasma level in patients with the majority of responses: > 30 µg/mL
[2]; single antibody infusion, doses 0.01 mg/kg to 15 mg/kg, patients
  dose at which objective responses were evident: ≥ 3 mg/kg

## COC(=O)N1CC2(CC2)C[C@H](C(=O)NO)[C@H]1C(=O)N1CC=C(c2ccccc2)CC1 [Aderbasib]
[3]
  mouse survival: extends mouse survival

## CC(C)(C(=O)NCC(F)(F)C(F)(F)F)C(=O)N[C@@H]1C(=O)Nc2ccccc2-c2ccccc21 [RO4929097]
[4]
  mouse survival: extends mouse survival

B1: recombinant NLGN3 ectodomains: recombinant human NLGN3 ectodomain, produced in house (protein, UniProt Q9NZ94 38-709, looked up)
extracellular domain: QAPAPTVNTHFGKLRGARVPLPSEILGPVDQYLGVPYAAPPIGEKRFLPPEPPPSWSGIRNATHFPPVCPQNIHTAVPEVMLPVWFTANLDIVATYIQEPNEDCLYLNVYVPTEDVKRISKECARKPNKKICRKGGSGAKKQGEDLADNDGDEDEDIRDSGAKPVMVYIHGGSYMEGTGNMIDGSILASYGNVIVITLNYRVGVLGFLSTGDQAAKGNYGLLDQIQALRWVSENIAFFGGDPRRITVFGSGIGASCVSLLTLSHHSEGLFQRAIIQSGSALSSWAVNYQPVKYTSLLADKVGCNVLDTVDMVDCLRQKSAKELVEQDIQPARYHVAFGPVIDGDVIPDDPEILMEQGEFLNYDIMLGVNQGEGLKFVEGVVDPEDGVSGTDFDYSVSNFVDNLYGYPEGKDTLRETIKFMYTDWADRDNPETRRKTLVALFTDHQWVEPSVVTADLHARYGSPTYFYAFYHHCQSLMKPAWSDAAHGDEVPYVFGVPMVGPTDLFPCNFSKNDVMLSAVVMTYWTNFAKTGDPNKPVPQDTKFIHTKANRFEEVAWSKYNPRDQLYLHIGLKPRVRDHYRATKVAFWKHLVPHLYNLHDMFHYTSTTTKVPPPDTTHSSHITRRPNGKTWSTKRPAISPAYSNENAQGSWNGDQDAGPLLVENPRDYSTELS
modifications: extracellular domain
notes: recombinant human NLGN3 ectodomain, produced in house
[1]; glioma cells exposed to 100 nM recombinant human NLGN3 ectodomain, 1 hour
  ADAM-mediated CSPG4 cleavage: augments this ADAM-mediated CSGP4 cleavage
[5]
  shedding of murine AN2: augment the shedding of murine AN2
[6]
  shedding of murine AN2: augment the shedding of murine AN2
